Test results: paper PMC8545111, “Molecular Basis of the Versatile Regulatory Mechanism of HtrA-Type Protease AlgW from Pseudomonas aeruginosa” (mBio, 2021)
Changes are numbered by the printed parent chain.

Legend:
Test in all cases: cell-based or functional assay
AlgW-R279A = target: T1, AlgW-R279A (Pseudomonas aeruginosa, UniProt Q9HVX1 30-389, R279A)
T1 sequence: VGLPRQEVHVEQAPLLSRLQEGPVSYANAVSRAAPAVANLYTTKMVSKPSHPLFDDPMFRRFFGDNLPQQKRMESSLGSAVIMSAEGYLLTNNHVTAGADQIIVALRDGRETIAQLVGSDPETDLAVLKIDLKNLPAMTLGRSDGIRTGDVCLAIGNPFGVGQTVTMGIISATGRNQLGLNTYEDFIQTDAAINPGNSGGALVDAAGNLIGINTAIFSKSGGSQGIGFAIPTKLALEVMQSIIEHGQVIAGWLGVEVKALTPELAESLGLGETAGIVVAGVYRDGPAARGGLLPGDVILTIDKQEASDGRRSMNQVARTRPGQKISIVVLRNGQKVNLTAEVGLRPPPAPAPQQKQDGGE

AlgW-W281A = target: T2, AlgW-W281A (Pseudomonas aeruginosa, UniProt Q9HVX1 30-389, W281A)
T2 sequence: T1 sequence with A250R, W252A

AlgW-E266A = target: T3, AlgW-E266A (Pseudomonas aeruginosa, UniProt Q9HVX1 30-389, E266A)
T3 sequence: T1 sequence with E237A, A250R

AlgW-V284A = target: T4, AlgW-V284A (Pseudomonas aeruginosa, UniProt Q9HVX1 30-389, V284A)
T4 sequence: T1 sequence with A250R, V255A

AlgW-L282A = target: T5, AlgW-L282A (Pseudomonas aeruginosa, UniProt Q9HVX1 30-389, L282A)
T5 sequence: T1 sequence with A250R, L253A

AlgW-R347A = target: T6, AlgW-R347A (Pseudomonas aeruginosa, UniProt Q9HVX1 30-389, R347A)
T6 sequence: T1 sequence with A250R, R318A

AlgW-E285A = target: T7, AlgW-E285A (Pseudomonas aeruginosa, UniProt Q9HVX1 30-389, E285A)
T7 sequence: T1 sequence with A250R, E256A

B1: decapeptide SVRDELRWVF (MucE C-terminal tail) (peptide)
peptide: SVRDELRWVF
notes: C-terminal decapeptide of the periplasmic protein MucE of Pseudomonas aeruginosa; also called C-terminal decapeptide of MucE
half-maximal activation concentration of the peptide activator (cleavage of Abz-VLAG-pNA) (AlgW-R279A): 2.19 μM
half-maximal activation concentration of the peptide activator (cleavage of Abz-VLAG-pNA) (AlgW-W281A): 1.51 μM
maximal cleavage activity of peptide-activated AlgW (Abz-VLAG-pNA) (AlgW-W281A): 10.3 μM min^−1
half-maximal activation concentration of the peptide activator (cleavage of Abz-VLAG-pNA) (AlgW-E266A): 1.08 μM
half-maximal activation concentration of the peptide activator (cleavage of Abz-VLAG-pNA) (AlgW-V284A): 3.56 μM
maximal cleavage activity of peptide-activated AlgW (Abz-VLAG-pNA) (AlgW-V284A): 63.1 μM min^−1
half-maximal activation concentration of the peptide activator (cleavage of Abz-VLAG-pNA) (AlgW-L282A): 2.76 μM
maximal cleavage activity of peptide-activated AlgW (Abz-VLAG-pNA) (AlgW-L282A): 13.2 μM min^−1
half-maximal activation concentration of the peptide activator (cleavage of Abz-VLAG-pNA) (AlgW-R347A): 1.85 μM
half-maximal activation concentration of the peptide activator (cleavage of Abz-VLAG-pNA) (AlgW-E285A): 3.84 μM
maximal cleavage activity of peptide-activated AlgW (Abz-VLAG-pNA) (AlgW-E285A): 57.5 μM min^−1
